Data on two molecules can be found in patent publication US20190153406A1 (PEKING UNIVERSITY, published 2019).

For test [1], the target named is T1, rat insulin receptor substrate IRS1 (rat, UniProt P35570 1-1235, limits assumed).
T1 construct: The legend says Rat IRS1; also called Rat IRS1
T1 sequence (looked up): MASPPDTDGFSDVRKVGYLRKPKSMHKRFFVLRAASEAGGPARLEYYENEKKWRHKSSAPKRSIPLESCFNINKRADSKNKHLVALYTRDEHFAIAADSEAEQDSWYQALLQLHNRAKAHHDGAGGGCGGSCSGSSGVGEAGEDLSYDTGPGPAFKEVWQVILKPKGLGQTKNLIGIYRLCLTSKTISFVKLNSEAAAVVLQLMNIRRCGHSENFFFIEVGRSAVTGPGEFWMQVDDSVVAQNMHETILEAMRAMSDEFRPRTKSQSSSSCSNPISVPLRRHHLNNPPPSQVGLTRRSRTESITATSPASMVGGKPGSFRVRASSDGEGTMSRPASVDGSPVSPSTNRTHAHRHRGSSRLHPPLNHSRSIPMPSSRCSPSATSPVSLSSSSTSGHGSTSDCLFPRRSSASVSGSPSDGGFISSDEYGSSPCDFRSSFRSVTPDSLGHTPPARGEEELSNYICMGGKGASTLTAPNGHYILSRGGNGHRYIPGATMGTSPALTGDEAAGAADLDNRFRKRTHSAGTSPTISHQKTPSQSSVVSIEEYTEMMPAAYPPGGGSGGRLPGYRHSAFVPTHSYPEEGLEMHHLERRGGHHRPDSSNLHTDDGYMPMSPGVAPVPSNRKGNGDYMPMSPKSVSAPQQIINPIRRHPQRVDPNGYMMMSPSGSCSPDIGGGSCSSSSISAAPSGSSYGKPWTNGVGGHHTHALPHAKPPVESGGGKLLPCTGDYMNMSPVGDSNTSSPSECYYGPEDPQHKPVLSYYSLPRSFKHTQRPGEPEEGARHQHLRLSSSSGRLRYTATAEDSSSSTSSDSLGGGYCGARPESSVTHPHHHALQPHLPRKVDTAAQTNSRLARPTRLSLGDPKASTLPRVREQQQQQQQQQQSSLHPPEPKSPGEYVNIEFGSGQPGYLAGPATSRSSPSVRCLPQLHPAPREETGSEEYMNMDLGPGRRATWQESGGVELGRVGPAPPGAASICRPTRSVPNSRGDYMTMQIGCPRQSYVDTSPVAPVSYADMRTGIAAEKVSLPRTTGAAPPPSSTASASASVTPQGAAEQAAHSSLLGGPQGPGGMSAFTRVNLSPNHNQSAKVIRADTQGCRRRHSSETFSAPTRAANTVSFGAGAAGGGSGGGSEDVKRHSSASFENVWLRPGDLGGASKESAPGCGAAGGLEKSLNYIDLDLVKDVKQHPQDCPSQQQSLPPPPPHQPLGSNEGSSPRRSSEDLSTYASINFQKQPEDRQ
In words: SPR, purified IRS1 immobilized, purified MG53 in mobile phase. (Surface plasmon resonance follows binding to a sensor surface in real time, without labels.)

In test [2] the target is T1, rat insulin receptor substrate IRS1. The test can be described thus: SPR, Rat IRS1 immobilized (500 RU), MG53-S255A in the mobile phase [lower panel].

B1: mouse wild-type MG53 (enzyme)
chain: MSAAPGLLRQELSCPLCLQLFDAPVTAECGHSFCRACLIRVAGEPAADGTVACPCCQAPTRPQALSTNLQLSRLVEGLAQVPQGHCEEHLDPLSIYCEQDRTLVCGVCASLGSHRGHRLLPAAEAQARLKTQLPQQKMQLQEACMRKEKTVAVLEHQLVEVEETVRQFRGAVGEQLGKMRMFLAALESSLDREAERVRGDAGVALRRELSSLNSYLEQLRQMEKVLEEVADKPQTEFLMKFCLVTSRLQKILSESPPPARLDIQLPVISDDFKFQVWKKMFRALMPALEELTFDPSSAHPSLVVSSSGRRVECSDQKAPPAGEDTRQFDKAVAVVAQQLLSQGEHYWEVEVGDKPRWALGVMAADASRRGRLHAVPSQGLWLLGLRDGKILEAHVEAKEPRALRTPERPPARIGLYLSFADGVLAFYDASNPDVLTPIFSFHERLPGPVYPIFDVCWHDKGKNAQPLLLVGPEQEQA
notes: Expressed from a plasmid in HEK293T cells for co-IP and degradation assays; purified protein in the mobile phase for SPR; also called TRIM72; Mitsugumin 53
What is called Kd is the free concentration of one partner at which half of the binding sites on the other are occupied at equilibrium, for simple one-to-one binding. Consider B1, for which the Kd in test [1] was 64.2 nM.

B2: mouse MG53 S255A mutant (enzyme)
chain: MSAAPGLLRQELSCPLCLQLFDAPVTAECGHSFCRACLIRVAGEPAADGTVACPCCQAPTRPQALSTNLQLSRLVEGLAQVPQGHCEEHLDPLSIYCEQDRTLVCGVCASLGSHRGHRLLPAAEAQARLKTQLPQQKMQLQEACMRKEKTVAVLEHQLVEVEETVRQFRGAVGEQLGKMRMFLAALESSLDREAERVRGDAGVALRRELSSLNSYLEQLRQMEKVLEEVADKPQTEFLMKFCLVTSRLQKILSEAPPPARLDIQLPVISDDFKFQVWKKMFRALMPALEELTFDPSSAHPSLVVSSSGRRVECSDQKAPPAGEDTRQFDKAVAVVAQQLLSQGEHYWEVEVGDKPRWALGVMAADASRRGRLHAVPSQGLWLLGLRDGKILEAHVEAKEPRALRTPERPPARIGLYLSFADGVLAFYDASNPDVLTPIFSFHERLPGPVYPIFDVCWHDKGKNAQPLLLVGPEQEQA
In the case of B2, the binding result in test [2] is “no binding (tested: 1000 nM)”.
